We go through 5 molecules from US20240299576A1, “TARGETING […] MOLECULES AND USES THEREOF” (priority 2021, published 2024).

In general, IC50 refers to the point on the concentration scale where inhibition reaches its midpoint.

Like-named read-outs stand apart in the source and are kept apart here. A value given as a limit tells only on which side of the number the result lay.

The nature of data set [1]: Stability of SN-38 (lactone / lactone ring opening vs pH). Format: physicochemical. As to the method: A hydrochloric acid solution with a pH of 4 and a sodium hydroxide solution with a pH of 10 were prepared respectively. 5 mg of SN-38 was dissolved in 5 mL of acetonitrile. The stability of SN-38 in a solution of changing pH (pH=10 to pH=4) was measured by shaking SN-38 at room temperature under pH=10 for 10 min, then adjusting the pH back to 4 and shake at room temperature for 10 min before sampling. SN-38 was then incubated at room temperature overnight (16 h) on a shaker and assayed afterwards.

The test system of another data set is HCT15-hPDL1 cells. The data set can be described thus: cells. Format: cell-based, human. To be noted: 5 days exposure, read-out: HCT15-hPDL1 cell IC50. On the procedure:
The cell line was named as HCT15-hPDL1.
(§1) The in vitro anti-tumor activity was determined by CellTiter-Glo® Luminescent Cell Viability Assay (Promega) according to the manufacturer's instructions. […] Untreated cells served as control. ADCs, antibodies, or payloads in 100 μL medium were added in duplicate at various concentrations with a 2-fold dilution series starting with concentrations of 1 uM, respectively. Cells were exposed to test articles for 5 days. Absorbance was measured at 450 nm by a microplate reader. The cell survival rate (%) was calculated using the following formula: sample/control×100%.

In another data set the test system is PC3-hPDL1-hTROP2 cells. The data set is described as follows: cells. Format: cell-based, human. Conditions: 5 days exposure, read-out: PC3-hPDL1-hTROP2 cell IC50. On the procedure: as §1
The subject of another data set is HCT15-hPDL1-hTROP2 cells. The data set can be described thus: In vitro cytotoxicity, HCT15-hPDL1-hTROP2 cells. Format: cell-based, human. On the procedure: The cell line was named as HCT15-hPDL1-hTROP2.
as §1

The next data set deals with CathepsinB (Homo sapiens, UniProt P07858). The data set can be described thus: Digestion of the drug-linkers by CathepsinB. Conditions: 125 nM enzyme, 62.5 μM drug-linker, pH 5.5, 37° C., 3 hours.
For data set [2], the system named is T1, uPA substrate peptide SEQ ID NO: 50.
T1 sequence: LSGRSDNH

Data set [3] has as its system T2, uPA substrate peptide SEQ ID NO: 51.
T2 sequence: SGRSA

The subject of data set [4] is T3, uPA substrate peptide SEQ ID NO: 52.
T3 sequence: LGGSGRSANAILE

The subject of data set [5] is T4, uPA substrate peptide SEQ ID NO: 53.
T4 sequence: LGGSGRNAQVRLE

Data set [6] relates to T5, uPA substrate peptide SEQ ID NO: 54.
T5 sequence: GSGRNAQV

The mark [7] stands for this setting: alkaline conditions 10 minutes, then acidic conditions (pH 10→4) before testing.
[8] abbreviates: pH 10→4, after incubation overnight (16 h).

Tissue-type Plasminogen Activator (tPA), sequence (P00750 36-562): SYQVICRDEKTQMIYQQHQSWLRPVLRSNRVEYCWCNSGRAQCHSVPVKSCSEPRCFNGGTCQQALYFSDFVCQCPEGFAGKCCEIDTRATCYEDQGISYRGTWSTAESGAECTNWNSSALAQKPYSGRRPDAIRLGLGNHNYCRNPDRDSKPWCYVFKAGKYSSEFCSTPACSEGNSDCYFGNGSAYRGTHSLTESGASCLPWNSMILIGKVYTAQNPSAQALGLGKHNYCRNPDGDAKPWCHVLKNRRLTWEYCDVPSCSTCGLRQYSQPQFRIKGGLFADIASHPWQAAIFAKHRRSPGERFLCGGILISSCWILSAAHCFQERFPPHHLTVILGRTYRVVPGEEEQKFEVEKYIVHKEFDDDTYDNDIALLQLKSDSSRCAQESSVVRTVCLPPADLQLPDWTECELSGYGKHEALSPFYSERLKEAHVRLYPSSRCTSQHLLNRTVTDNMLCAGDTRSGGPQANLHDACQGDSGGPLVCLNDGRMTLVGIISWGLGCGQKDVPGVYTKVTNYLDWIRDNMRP
Procedure for CathepsinB: To simulate the release of drug under physiological conditions, the drug-linkers were subjected to cleavage by CathepsinB, after which an elimination reaction occurred and unmodified drug was released.
Lyophilized CathepsinB enzyme powder was dissolved in 130 μL of pure water, and divided into 13 tubes of 10 μL each. […] Activation buffer (20 mM sodium acetate, 30 mM DTT, 15 mM EDTA, pH 5.5) was then added to a tube of enzyme to activate the enzyme for 1 hour at room temperature.

In [1] (acidic conditions (pH 4)), `CCc1c2c(nc3ccc(O)cc13)-c1cc3c(c(=O)n1C2)COC(=O)[C@]3(O)CC` [SN38, 7-ethyl-10-hydroxy-20(S)-camptothecin] had an existing as lactone of 94%. The lactone ring-opening products in data set [1] (setting [7]) was 42%; in data set [1] (setting [8]), 13%. Besides, the “present in the form of lactone” value in data set [1] (setting [7]) is on record as 56%. Further, the lactone ring-opened form in [1] (alkaline conditions (pH 10)) is on record as 92%. Besides, the “in the form of lactone” value in data set [1] (setting [8]) stood at 86%. The IC50 with HCT15-hPDL1 cells (Homo sapiens, 120 h) came to 0.0112 µM; in the data set on PC3-hPDL1-hTROP2 cells (Homo sapiens, 120 h) it was 0.00869 µM; in the data set with HCT15-hPDL1-hTROP2 cells (Homo sapiens, 120 h, 5 days exposure, read-out: HCT15-hPDL1-hTROP2 cell IC50), 0.00957 µM. Further, the “Maximum Inhibitory Rate” value in the data set on HCT15-hPDL1-hTROP2 cells (HCT15-hPDL1-hTROP2 cells) is reported as above 99.9%.
Regarding “Glycine3-amido-PEG8-VC-PAB-DMAE-phenol linked SN38 [Compound of Formula (1)]”, the IC50 in the data set with PC3-hPDL1-hTROP2 cells was above 0.25 µM. The “Product released on CathepsinB digestion” value on CathepsinB is reported as “SN38”.
As to “Glycine3-amido-PEG8-VC-PAB-DMAE-α-hydroxy lactone linked SN38 [Compound of Formula (2)]”, the IC50 in the data set on HCT15-hPDL1 cells stood at 0.0381 µM; with PC3-hPDL1-hTROP2 cells, 0.0531 µM. Further, the “CathepsinB digestion” value on CathepsinB is listed as “effectively digested”. On CathepsinB, the “Product released on CathepsinB digestion” value is given as “SN38 derivatives”.
Consider Tissue-type Plasminogen Activator (tPA), for which the Fluorescence Intensity, Fold of Increase, tPA digestion at 2.25 × 10^-2 mg/mL (FRET) in data set [2] was 1.1 fold; in [3], 5.4 fold; in data set [4] it was 2.1 fold; in data set [5] it was 1.3 fold; in [6] it was 2.6 fold. Moreover, the Fluorescence Intensity, Fold of Increase, tPA digestion at 7.5 × 10^-3 mg/mL (FRET) stood at 0.63 fold in data set [2]; 2.1 fold in data set [3]; 1.2 fold in data set [4]; 0.73 fold in data set [5]; 0.91 fold in [6].
Consider “Urokinase-type Plasminogen Activator (uPA)”, for which the Fluorescence Intensity, Fold of Increase, uPA cleavage (FRET) in data set [2] came out at 4.9 fold; in [3], 9.6 fold; in data set [4] it was 3.1 fold; in data set [5] it was 3 fold; in [6], 4.7 fold. Further, the Fluorescence Intensity, Time to Reach Plateau (h), uPA cleavage (FRET) was 1.7 h in data set [2]; 1.8 h in [3]; 1.4 h in [4]; 1.6 h in data set [5]; 1.4 h in data set [6].
